Measured values: IntAct's records for PubMed 25910212

B1: Interleukin-1 alpha (Homo sapiens), P01583 (parent)
chain: MAKVPDMFEDLKNCYSENEEDSSSIDHLSLNQKSFYHVSYGPLHEGCMDQSVSLSISETSKTSKLTFKESMVVVATNGKVLKKRRLSLSQSITDDDLEAIANDSEEEIIKPRSAPFSFLSNVKYNFMRIIKYEFILNDALNQSIIRANDQYLTAAALHNLDEAVKFDMGAYKSSKDDAKITVILRISKTQLYVTAQDEDQPVLLKEMPEIPKTITGSETNLLFFWETHGTKNYFTSVAHPNLFIATKQDYWVCLAGGPPSITDFQILENQA
B2: Plakophilin-2 (Homo sapiens), Q99959-2 (parent)
chain: MAAPGAPAEYGYIRTVLGQQILGQLDSSSLALPSEAKLKLAGSSGRGGQTVKSLRIQEQVQQTLARKGRSSVGNGNLHRTSSVPEYVYNLHLVENDFVGGRSPVPKTYDMLKAGTTATYEGRWGRGTAQYSSQKSVEERSLRHPLRRLEISPDSSPERAHYTHSDYQYSQRSQAGHTLHHQESRRAALLVPPRYARSEIVGVSRAGTTSRQRHFDTYHRQYQHGSVSDTVFDSIPANPALLTYPRPGTSRSMGNLLEKENYLTAGLTVGQVRPLVPLQPVTQNRASRSSWHQSSFHSTRTLREAGPSVAVDSSGRRAHLTVGQAAAGGSGNLLTERSTFTDSQLGNADMEMTLERAVSMLEADHMLPSRISAAATFIQHECFQKSEARKRVNQLRGILKLLQLLKVQNEDVQRAVCGALRNLVFEDNDNKLEVAELNGVPRLLQVLKQTRDLETKKQITGLLWNLSSNDKLKNLMITEALLTLTENIIIPFSGWPEGDYPKANGLLDFDIFYNVTGCLRNMSSAGADGRKAMRRCDGLIDSLVHYVRGTIADYQPDDKATENCVCILHNLSYQLEAELPEKYSQNIYIQNRNIQTDNNKSIGCFGSRSRKVKEQYQDVPMPEEKSNPKGVEWLWHSIVIRMYLSLIAKSVRNYTQEASLGALQNLTAGSGPMPTSVAQTVVQKESGLQHTRKMLHVGDPSVKKTAISLLRNLSRNLSLQNEIAKETLPDLVSIIPDTVPSTDLLIETTASACYTLNNIIQNSYQNARDLLNTGGIQKIMAISAGDAYASNKASKAASVLLYSLWAHTELHHAYKKAQFKKTDFVNSRTAKAYHSLKD
B3: U4/U6 small nuclear ribonucleoprotein Prp31 (Homo sapiens), Q8WWY3 (parent)
chain: MSLADELLADLEEAAEEEEGGSYGEEEEEPAIEDVQEETQLDLSGDSVKTIAKLWDSKMFAEIMMKIEEYISKQAKASEVMGPVEAAPEYRVIVDANNLTVEIENELNIIHKFIRDKYSKRFPELESLVPNALDYIRTVKELGNSLDKCKNNENLQQILTNATIMVVSVTASTTQGQQLSEEELERLEEACDMALELNASKHRIYEYVESRMSFIAPNLSIIIGASTAAKIMGVAGGLTNLSKMPACNIMLLGAQRKTLSGFSSTSVLPHTGYIYHSDIVQSLPPDLRRKAARLVAAKCTLAARVDSFHESTEGKVGYELKDEIERKFDKWQEPPPVKQVKPLPAPLDGQRKKRGGRRYRKMKERLGLTEIRKQANRMSFGEIEEDAYQEDLGFSLGHLGKSGSGRVRQTQVNEATKARISKTLQRTLQKQSVVYGGKSTIRDRSSGTASSVAFTPLQGLEIVNPQAAEKKVAEANQKYFSSMAEFLKVKGEKSGLMST
partner: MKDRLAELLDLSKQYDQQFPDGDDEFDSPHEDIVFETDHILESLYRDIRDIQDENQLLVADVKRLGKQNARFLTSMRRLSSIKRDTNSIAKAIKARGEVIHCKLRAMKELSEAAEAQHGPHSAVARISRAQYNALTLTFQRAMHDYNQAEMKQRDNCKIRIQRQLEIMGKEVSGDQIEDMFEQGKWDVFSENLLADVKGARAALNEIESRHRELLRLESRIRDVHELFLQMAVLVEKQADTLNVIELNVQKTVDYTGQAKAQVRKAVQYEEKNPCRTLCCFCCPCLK
B4: Cytochrome P450 1A1 (Homo sapiens), P04798 (parent)
chain: MLFPISMSATEFLLASVIFCLVFWVIRASRPQVPKGLKNPPGPWGWPLIGHMLTLGKNPHLALSRMSQQYGDVLQIRIGSTPVVVLSGLDTIRQALVRQGDDFKGRPDLYTFTLISNGQSMSFSPDSGPVWAARRRLAQNGLKSFSIASDPASSTSCYLEEHVSKEAEVLISTLQELMAGPGHFNPYRYVVVSVTNVICAICFGRRYDHNHQELLSLVNLNNNFGEVVGSGNPADFIPILRYLPNPSLNAFKDLNEKFYSFMQKMVKEHYKTFEKGHIRDITDSLIEHCQEKQLDENANVQLSDEKIINIVLDLFGAGFDTVTTAISWSLMYLVMNPRVQRKIQEELDTVIGRSRRPRLSDRSHLPYMEAFILETFRHSSFVPFTIPHSTTRDTSLKGFYIPKGRCVFVNQWQINHDQKLWVNPSEFLPERFLTPDGAIDKVLSEKVIIFGMGKRKCIGETIARWEVFLFLAILLQRVEFSVPLGVKVDMTPIYGLTMKHACCEHFQMQLRS

Variants of: B1
Details: with ima7_human KPNA6, O60684

Row | effect of a mutation on the interaction | Variant
1 | with no effect | A114S
2 | with no effect | S113A

Variants of: B1
Details: with meox2_human MEOX2, P50222
meox2_human MEOX2, P50222, sequence (P50222 whole entry): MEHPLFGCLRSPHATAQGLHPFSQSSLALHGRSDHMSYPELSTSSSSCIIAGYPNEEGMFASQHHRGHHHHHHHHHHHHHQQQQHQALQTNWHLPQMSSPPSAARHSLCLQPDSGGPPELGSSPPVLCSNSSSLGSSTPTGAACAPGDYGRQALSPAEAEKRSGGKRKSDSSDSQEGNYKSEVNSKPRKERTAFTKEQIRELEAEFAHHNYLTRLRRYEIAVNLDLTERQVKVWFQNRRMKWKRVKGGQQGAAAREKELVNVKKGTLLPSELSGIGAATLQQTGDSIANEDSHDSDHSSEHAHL

Row | effect of a mutation on the interaction | Variant
3 | with no effect | A114S
4 | with no effect | S113A

Variants of: B2
Details: with MTUS2, Q5JR59-3
MTUS2, Q5JR59-3, sequence (Q5JR59 other isoform, or with tags, fused parts or gaps): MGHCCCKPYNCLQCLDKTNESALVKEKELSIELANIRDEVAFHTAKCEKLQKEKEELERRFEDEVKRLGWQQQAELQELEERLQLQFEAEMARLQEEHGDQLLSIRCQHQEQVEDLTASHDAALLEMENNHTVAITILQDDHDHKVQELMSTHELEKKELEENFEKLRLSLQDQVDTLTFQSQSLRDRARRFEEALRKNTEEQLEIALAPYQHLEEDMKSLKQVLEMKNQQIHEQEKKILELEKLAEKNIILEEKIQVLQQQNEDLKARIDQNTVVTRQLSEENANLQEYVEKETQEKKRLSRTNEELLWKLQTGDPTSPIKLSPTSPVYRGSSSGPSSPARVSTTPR

Row | effect of a mutation on the interaction | Variant
5 | disrupting interaction strength | S140F
6 | disrupting interaction strength | S644P
7 | with no effect | A264V

Variants of: B3
Details: with stx11_human STX11, O75558

Row | effect of a mutation on the interaction | Variant
8 | with no effect | L107V

Variants of: B4
Details: with CMTM5, Q96DZ9-2
CMTM5, Q96DZ9-2, sequence (Q96DZ9 other isoform, or with tags, fused parts or gaps): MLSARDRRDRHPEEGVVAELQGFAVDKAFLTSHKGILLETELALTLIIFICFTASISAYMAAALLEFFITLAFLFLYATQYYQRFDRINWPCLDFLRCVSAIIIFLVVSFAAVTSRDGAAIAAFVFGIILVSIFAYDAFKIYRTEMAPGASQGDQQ

Row | effect of a mutation on the interaction | Variant
9 | with no effect | I462V
10 | with no effect | T461N
